Experiments:
[1] = biological target: T1, E. coli double M173L-Y371H mutant GalK (Escherichia coli, UniProt P0A6T3, M173L/Y371H); assay: Substrate screen / percent conversion of 45 sugars, M173L-Y371H; type: biochemical
T1 construct: His-tag (concluded from Ni-NTA purification and vector pET15b); made in house
Description: Characterization of GalK Mutants. […] The mutant enzymes were purified by using metal affinity chromatography on Ni-NTA Spin Columns (QIAGEN, Valencia, Calif.) and fractions containing homogenous protein were collected, concentrated and quantified using the Bradford protein assay. The DNS assay was used to assess the substrate specificity of the purified GalK mutants as previously described. […] For each sugar, the DNS assay was used to monitor the reaction progress and control assays in the absence of enzyme or sugar were performed in parallel. Standard curves for each sugar were prepared as described. To assess general percent conversion, each reaction contained 15.0 (M enzyme, 8 mM sugar, 14 mM ATP and 3.5 mM MgCl2. […] For monosaccharide kinetic data determination, the sugar concentration was varied over a range of 1-8 mM, under saturating ATP (14 mM). Reaction progress was assessed via the DNS assay, wherein a change in absorbance at 575 nm as a function of time was obtained and the initial velocity determined by the slope of the linear phase in the progress curve. The kinetic data was analyzed using Enzyme Kinetics Module software (SSPS, Inc., Chicago, Ill.) as previously described.
(§1) Characterization of Engineered E. coli GalK Mutants.

wild-type E. coli GalK = biological target: T2, wild-type E. coli GalK (Escherichia coli, UniProt P0A6T3); type: biochemical
T2 construct: made in house
T2 sequence (P0A6T3 1-382): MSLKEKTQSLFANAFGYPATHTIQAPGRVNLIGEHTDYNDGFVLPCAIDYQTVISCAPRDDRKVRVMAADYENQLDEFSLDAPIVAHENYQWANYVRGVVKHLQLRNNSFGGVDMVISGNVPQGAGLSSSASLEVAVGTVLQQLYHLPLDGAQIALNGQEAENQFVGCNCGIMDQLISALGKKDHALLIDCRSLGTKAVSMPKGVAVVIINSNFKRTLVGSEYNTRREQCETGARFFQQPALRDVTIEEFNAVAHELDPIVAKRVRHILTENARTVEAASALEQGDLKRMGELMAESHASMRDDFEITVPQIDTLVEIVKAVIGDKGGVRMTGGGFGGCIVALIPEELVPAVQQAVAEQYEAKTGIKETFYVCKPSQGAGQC
Description: (§2) Characterization of GalK Mutants. […] The mutant enzymes were purified by using metal affinity chromatography on Ni-NTA Spin Columns (QIAGEN, Valencia, Calif.) and fractions containing homogenous protein were collected, concentrated and quantified using the Bradford protein assay. The DNS assay was used to assess the substrate specificity of the purified GalK mutants as previously described. […] For each sugar, the DNS assay was used to monitor the reaction progress and control assays in the absence of enzyme or sugar were performed in parallel. Standard curves for each sugar were prepared as described. To assess general percent conversion, each reaction contained 15.0 (M enzyme, 8 mM sugar, 14 mM ATP and 3.5 mM MgCl2. The reactions were incubated at 37° C. for 3 hrs after which the reactions were quenched with MeOH, centrifuged (10 min, 12,000 rpm) and then the supernatant (diluted 20-fold) submitted for LC-MS and MS/MS analysis. For monosaccharide kinetic data determination, the sugar concentration was varied over a range of 1-8 mM, under saturating ATP (14 mM). Reaction progress was assessed via the DNS assay, wherein a change in absorbance at 575 nm as a function of time was obtained and the initial velocity determined by the slope of the linear phase in the progress curve. The kinetic data was analyzed using Enzyme Kinetics Module software (SSPS, Inc., Chicago, Ill.) as previously described.
as §1

L. lactis wild-type GalK = biological target: T3, L. lactis wild-type GalK (Lactococcus lactis subsp. lactis, UniProt Q9R7D7); conditions: in vitro; cited from earlier work
T3 sequence (Q9R7D7 1-399): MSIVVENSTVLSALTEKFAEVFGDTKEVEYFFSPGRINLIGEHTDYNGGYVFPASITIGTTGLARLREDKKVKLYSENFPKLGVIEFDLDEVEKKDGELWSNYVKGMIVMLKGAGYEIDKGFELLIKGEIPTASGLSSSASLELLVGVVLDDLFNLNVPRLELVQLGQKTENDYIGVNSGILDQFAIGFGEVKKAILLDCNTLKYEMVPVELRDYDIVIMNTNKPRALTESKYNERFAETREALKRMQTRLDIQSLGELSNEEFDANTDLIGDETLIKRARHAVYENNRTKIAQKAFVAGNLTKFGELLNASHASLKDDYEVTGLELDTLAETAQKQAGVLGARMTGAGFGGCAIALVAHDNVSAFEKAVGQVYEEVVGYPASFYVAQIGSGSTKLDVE

[2] = biological target: T4, E. coli GalK M173L mutant (Escherichia coli, UniProt P0A6T3, M173L); assay: Substrate screen / percent conversion of 45 sugars, M173L; type: biochemical
T4 construct: His-tag (concluded from Ni-NTA purification and vector pET15b); made in house
Description: as §2, §1

[3] = biological target: T5, E. coli GalK Y371H mutant (Escherichia coli, UniProt P0A6T3, Y371H); type: biochemical
T5 construct: His-tag (concluded from Ni-NTA purification and vector pET15b); made in house; host or cells: E. coli BL21-Gold (DE3), vector pET15b
Description: as §2, §1

Y371H-M173L GalK = biological target: T6, Y371H-M173L GalK (Escherichia coli, UniProt P0A6T3, M173L/Y371H); assay: In vivo conversion of fed unnatural sugars to sugar-1-phosphates in E. coli host overexpressing GalK double mutant; type: cell-based; conditions: sugar fed at 4 mM to E. coli overexpressing Y371H-M173L GalK, 16° C., 16 hr; fluorescence HPLC after labelling with 50
T6 construct: His-tag (concluded: same plasmid pGalKMLYH in pET-15b whose product was purified on Ni-NTA); expressed in transfected cells; host or cells: E. coli host carrying pGalKMLYH (pET-15b), IPTG-induced at 16 °C
Description: FIG. 9. In vivo GalK-catalyzed sugar-1-phosphate production. (a) Experimental overview using 6-azido-6-deoxy-D-galactose (22) as an example: 22 is fed to an E. coli host expressing the M173L-Y371H GalK double mutant and the reactants and products subsequently labeled using a […] with the fluorescent tag 50. (b) HPLC chromatographs of bioconversions: i)22 with Y371H-M173L GalK; ii)46 with Y371H-M173L GalK; iii) 22 with wild-type GalK. MS: 50, calculated for C20H25N3O3S 387.2, found m/z 386.1 [M−H]^−; 51, calculated for C26H37N6O11PS 672.2, found m/z 671.2 [M−H]^−; 52, calculated for C26H36N6O8S 592.2, found m/z 591.2 [M−H]
In Vivo Conversion Analysis. […] The reaction mixture was subsequently centrifuged to remove CuI and the supernatant (diluted 2-fold) directly analyzed by HPLC and LC-MS calculated for C26H37N6O11PS 672.20, found m/z […] 671.20.
To assess the Y371H-M173L GalK-catalyzed in vivo production of unnatural sugar-1-phosphates (FIG. 9a), the unnatural sugars (22 or 46, 4 mM final concentration) were fed to an E. coli host (40 mL culture) which overexpressed the promiscuous GalK. After a designated time, the extracts were analyzed via the specific attachment of a fluorescent tag (50), to both starting material (22 or 46) and desired sugar-1-phosphate products, using 1,3-dipolar cycloaddition. […]

GalK mutant Y371H = GalK mutant Y371H (Escherichia coli, UniProt P0A6T3, Y371H); conditions: sugar 1-16 mM, saturating ATP (15 mM)
[4] = tested on: O=C[C@H](O)C[C@@H](O)[C@H](O)CO; assay: purified protein, by the assay type; conditions: other: sugar 1-16 mM, saturating ATP (15 mM)
NC1C(O)OC(CO)C(O)C1O = assay: purified protein, by the assay type; conditions: other: sugar 1-16 mM, saturating ATP (15 mM)
NCC1OC(O)C(O)C(O)C1O = assay: purified protein, by the assay type; conditions: other: sugar 1-16 mM, saturating ATP (15 mM)
OCC1OC(O)CC(O)C1O = assay: purified protein, by the assay type; conditions: other: sugar 1-16 mM, saturating ATP (15 mM)
O=C(O)C1OC(O)C(O)C(O)C1O = assay: purified protein, by the assay type; conditions: other: sugar 1-16 mM, saturating ATP (15 mM)
CC1OC(O)C(O)C(O)C1O = assay: purified protein, by the assay type; conditions: other: sugar 1-16 mM, saturating ATP (15 mM)
[5] = substrate: NC1C(O)OC(CO)C(O)C1O; assay: Kinetics and substrate specificity of wild-type GalK with sugar substrates (DNS assay), Table 1; type: biochemical, E. coli; conditions: other: sugar 1-16 mM, saturating ATP (15 mM)
[6] = substrate: CC1OC(O)C(O)C(O)C1O; assay: as above; type: biochemical, E. coli; conditions: other: sugar 1-16 mM, saturating ATP (15 mM)
[7] = substrate: OCC1OC(O)CC(O)C1O; assay: as above; type: biochemical, E. coli; conditions: other: sugar 1-16 mM, saturating ATP (15 mM)
[8] = substrate: O=C[C@H](O)C[C@@H](O)[C@H](O)CO; assay: as above; type: biochemical, E. coli; conditions: other: sugar 1-16 mM, saturating ATP (15 mM)

T1 sequence (P0A6T3 whole entry M173L/Y371H): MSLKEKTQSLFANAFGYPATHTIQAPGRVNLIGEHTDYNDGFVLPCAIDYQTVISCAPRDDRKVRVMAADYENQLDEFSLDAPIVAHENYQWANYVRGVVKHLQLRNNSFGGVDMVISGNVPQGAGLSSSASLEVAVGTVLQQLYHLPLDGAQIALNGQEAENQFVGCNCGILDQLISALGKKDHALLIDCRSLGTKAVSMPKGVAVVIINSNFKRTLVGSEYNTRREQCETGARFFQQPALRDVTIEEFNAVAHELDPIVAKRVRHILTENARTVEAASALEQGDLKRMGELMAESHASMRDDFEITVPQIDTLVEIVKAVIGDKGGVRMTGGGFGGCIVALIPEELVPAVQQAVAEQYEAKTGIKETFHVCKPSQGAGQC
Chain of GalK mutant Y371H (P0A6T3 whole entry Y371H): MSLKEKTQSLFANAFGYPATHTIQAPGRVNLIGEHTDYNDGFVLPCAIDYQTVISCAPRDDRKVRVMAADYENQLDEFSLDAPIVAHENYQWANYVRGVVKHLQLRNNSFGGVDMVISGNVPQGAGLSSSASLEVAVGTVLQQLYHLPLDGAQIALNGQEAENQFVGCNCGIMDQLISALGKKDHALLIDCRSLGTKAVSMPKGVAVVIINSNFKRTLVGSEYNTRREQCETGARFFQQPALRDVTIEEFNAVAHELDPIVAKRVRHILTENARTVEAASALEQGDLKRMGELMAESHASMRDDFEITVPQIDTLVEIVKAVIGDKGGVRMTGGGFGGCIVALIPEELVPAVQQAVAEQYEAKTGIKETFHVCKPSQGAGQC
T4 sequence (P0A6T3 whole entry M173L): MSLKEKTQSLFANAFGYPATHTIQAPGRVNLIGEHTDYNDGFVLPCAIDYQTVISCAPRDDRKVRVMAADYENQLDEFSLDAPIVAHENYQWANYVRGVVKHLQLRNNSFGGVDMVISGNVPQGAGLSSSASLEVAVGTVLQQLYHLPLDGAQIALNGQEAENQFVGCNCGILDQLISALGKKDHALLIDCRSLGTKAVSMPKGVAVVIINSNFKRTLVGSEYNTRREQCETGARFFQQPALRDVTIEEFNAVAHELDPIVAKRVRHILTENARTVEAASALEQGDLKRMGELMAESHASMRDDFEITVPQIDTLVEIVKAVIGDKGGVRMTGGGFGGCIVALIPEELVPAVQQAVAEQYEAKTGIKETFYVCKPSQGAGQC
T5 sequence (P0A6T3 whole entry Y371H): as the sequence (P0A6T3 whole entry Y371H) above
T6 sequence (P0A6T3 whole entry M173L/Y371H): as the sequence (P0A6T3 whole entry M173L/Y371H) above

In the case of `[N-]=[N+]=N[C@H]([C@H](O)[C@@H](O)C=O)[C@H](O)CO` [4-azido-4-deoxy-D-galactose (21), 4-azido-4-deoxy-D-galactose], the “kinase activity of M173L-Y371H double mutant (in words)” value [1] is given as “accept”, the “substrate of wild-type E. coli GalK (in words)” value (wild-type E. coli GalK) is given as “not a substrates” and the “conversion / activity with L. lactis wild-type GalK (in words)” value (L. lactis wild-type GalK) is given as “in vitro conversion”.

In the case of `O=C[C@H](O)[C@@H](O)C[C@H](O)CO` [4-deoxy-D-galactose (25), 4-deoxy-D-galactose], the “conversion / activity with L. lactis wild-type GalK (in words)” value (L. lactis wild-type GalK) is given as “in vitro conversion”.

In the case of `[N-]=[N+]=NC[C@@H](O)[C@H](O)[C@H](O)[C@@H](O)C=O` [6-azido-6-deoxy-D-galactose (22), 6-azido-6-deoxy-D-galactose], the “substrate of M173L (in words)” value [2] is reported as “failed”, the “kinase activity of M173L-Y371H double mutant (in words)” value [1] is reported as “accept” and the “in vitro yield (conversion) quoted for comparison with in vivo” value ([1]; in vitro) is reported as ~50%. The “in vitro conversion by M173L-Y371H” value ([1]; in vitro, in 2 hrs) was > 50%, the “substrate of wild-type E. coli GalK (in words)” value (wild-type E. coli GalK) was “not a substrates” and the “substrate of Y371H (in words)” value [3] was “failed”. The “in vivo conversion to sugar-1-phosphate” value (Y371H-M173L GalK) was ~69%.

In the case of `O=C[C@@H](O)[C@H](O)[C@@H](O)[C@@H](O)CO` [L-Glc (25), L-glucose], the Km (GalK mutant Y371H; read-out: Km, Y371H) is reported as 2.7 mM and the “kcat, Y371H” value (GalK mutant Y371H) is reported as 1.08 s⁻¹.

Molecule “GalK mutant Y371H (Escherichia coli K-12; Y371H)” has a Km [4] of 10.1 mM, a kcat [4] of 1.08 s⁻¹ and a kcat/Km [4] of 107 M⁻¹ s⁻¹. The Km (NC1C(O)OC(CO)C(O)C1O) was 8.8 mM, the kcat (NC1C(O)OC(CO)C(O)C1O) was 4.33 s⁻¹ and the kcat/Km (NC1C(O)OC(CO)C(O)C1O) was 492 M⁻¹ s⁻¹. It also gave a Km (NCC1OC(O)C(O)C(O)C1O) of 21.3 mM, a kcat (NCC1OC(O)C(O)C(O)C1O) of 2.48 s⁻¹ and a kcat/Km (NCC1OC(O)C(O)C(O)C1O) of 117 M⁻¹ s⁻¹. For the same molecule, the Km (OCC1OC(O)CC(O)C1O) was 4.7 mM, the kcat (OCC1OC(O)CC(O)C1O) was 3.33 s⁻¹ and the kcat/Km (OCC1OC(O)CC(O)C1O) was 710 M⁻¹ s⁻¹. The Km (O=C(O)C1OC(O)C(O)C(O)C1O) was 3.2 mM, the kcat (O=C(O)C1OC(O)C(O)C(O)C1O) was 0.967 s⁻¹ and the kcat/Km (O=C(O)C1OC(O)C(O)C(O)C1O) was 302 M⁻¹ s⁻¹. For the same molecule, the Km (CC1OC(O)C(O)C(O)C1O) was 8.0 mM, the kcat (CC1OC(O)C(O)C(O)C1O) was 1.68 s⁻¹ and the kcat/Km (CC1OC(O)C(O)C(O)C1O) was 210 M⁻¹ s⁻¹.

B1: wild-type E. coli GalK (Escherichia coli K-12) (protein)
chain: MSLKEKTQSLFANAFGYPATHTIQAPGRVNLIGEHTDYNDGFVLPCAIDYQTVISCAPRDDRKVRVMAADYENQLDEFSLDAPIVAHENYQWANYVRGVVKHLQLRNNSFGGVDMVISGNVPQGAGLSSSASLEVAVGTVLQQLYHLPLDGAQIALNGQEAENQFVGCNCGIMDQLISALGKKDHALLIDCRSLGTKAVSMPKGVAVVIINSNFKRTLVGSEYNTRREQCETGARFFQQPALRDVTIEEFNAVAHELDPIVAKRVRHILTENARTVEAASALEQGDLKRMGELMAESHASMRDDFEITVPQIDTLVEIVKAVIGDKGGVRMTGGGFGGCIVALIPEELVPAVQQAVAEQYEAKTGIKETFYVCKPSQGAGQC
notes: made in house
B1 gave a Km [5] of 2.9 mM, a kcat [5] of 0.195 s⁻¹ and a kcat/Km [5] of 66.7 M⁻¹ s⁻¹. The Km [6] was 4.9 mM, the kcat [6] was 0.0483 s⁻¹ and the kcat/Km [6] was 9.83 M⁻¹ s⁻¹. The Km [7] was 3.6 mM, the kcat [7] was 0.5 s⁻¹ and the kcat/Km [7] was 138 M⁻¹ s⁻¹. For the same molecule, the Km [8] was 6.4 mM, the kcat [8] was 0.085 s⁻¹ and the kcat/Km [8] was 13 M⁻¹ s⁻¹.

Reference: patent US7479385B2, “Sugar kinases with expanded substrate specificity and their use” (Wisconsin Alumni Research Foundation, priority 2003, dated 2009)
